Target: Vps34 (vacuolar protein sorting 34), endogenous in MEF cell lysate (UniProt Q6PF93)
Sequence (Q6PF93 whole entry): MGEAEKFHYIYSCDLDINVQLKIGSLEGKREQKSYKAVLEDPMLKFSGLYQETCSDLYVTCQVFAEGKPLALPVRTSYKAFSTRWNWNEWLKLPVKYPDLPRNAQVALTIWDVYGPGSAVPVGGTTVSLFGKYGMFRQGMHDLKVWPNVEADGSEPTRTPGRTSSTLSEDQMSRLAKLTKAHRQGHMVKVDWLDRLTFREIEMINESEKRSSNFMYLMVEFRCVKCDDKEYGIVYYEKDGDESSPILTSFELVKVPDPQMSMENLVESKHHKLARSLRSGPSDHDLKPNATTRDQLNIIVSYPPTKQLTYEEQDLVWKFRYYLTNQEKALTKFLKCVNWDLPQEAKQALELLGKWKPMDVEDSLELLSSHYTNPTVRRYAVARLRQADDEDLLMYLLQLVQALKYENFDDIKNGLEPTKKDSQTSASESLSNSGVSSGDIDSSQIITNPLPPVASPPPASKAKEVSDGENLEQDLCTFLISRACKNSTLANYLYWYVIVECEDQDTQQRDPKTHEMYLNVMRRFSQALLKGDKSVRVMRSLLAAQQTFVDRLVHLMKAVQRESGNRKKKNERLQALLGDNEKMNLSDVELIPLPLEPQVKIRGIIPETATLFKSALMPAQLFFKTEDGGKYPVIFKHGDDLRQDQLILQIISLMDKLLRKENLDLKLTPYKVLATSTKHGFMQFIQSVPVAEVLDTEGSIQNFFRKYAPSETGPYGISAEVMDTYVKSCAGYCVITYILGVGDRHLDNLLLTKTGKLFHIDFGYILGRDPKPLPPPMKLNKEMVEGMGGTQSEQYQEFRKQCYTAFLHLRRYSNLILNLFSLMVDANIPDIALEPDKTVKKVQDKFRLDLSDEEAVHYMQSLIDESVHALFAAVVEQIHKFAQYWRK

purified GST-LRS protein, sequence (chain, as listed by the source): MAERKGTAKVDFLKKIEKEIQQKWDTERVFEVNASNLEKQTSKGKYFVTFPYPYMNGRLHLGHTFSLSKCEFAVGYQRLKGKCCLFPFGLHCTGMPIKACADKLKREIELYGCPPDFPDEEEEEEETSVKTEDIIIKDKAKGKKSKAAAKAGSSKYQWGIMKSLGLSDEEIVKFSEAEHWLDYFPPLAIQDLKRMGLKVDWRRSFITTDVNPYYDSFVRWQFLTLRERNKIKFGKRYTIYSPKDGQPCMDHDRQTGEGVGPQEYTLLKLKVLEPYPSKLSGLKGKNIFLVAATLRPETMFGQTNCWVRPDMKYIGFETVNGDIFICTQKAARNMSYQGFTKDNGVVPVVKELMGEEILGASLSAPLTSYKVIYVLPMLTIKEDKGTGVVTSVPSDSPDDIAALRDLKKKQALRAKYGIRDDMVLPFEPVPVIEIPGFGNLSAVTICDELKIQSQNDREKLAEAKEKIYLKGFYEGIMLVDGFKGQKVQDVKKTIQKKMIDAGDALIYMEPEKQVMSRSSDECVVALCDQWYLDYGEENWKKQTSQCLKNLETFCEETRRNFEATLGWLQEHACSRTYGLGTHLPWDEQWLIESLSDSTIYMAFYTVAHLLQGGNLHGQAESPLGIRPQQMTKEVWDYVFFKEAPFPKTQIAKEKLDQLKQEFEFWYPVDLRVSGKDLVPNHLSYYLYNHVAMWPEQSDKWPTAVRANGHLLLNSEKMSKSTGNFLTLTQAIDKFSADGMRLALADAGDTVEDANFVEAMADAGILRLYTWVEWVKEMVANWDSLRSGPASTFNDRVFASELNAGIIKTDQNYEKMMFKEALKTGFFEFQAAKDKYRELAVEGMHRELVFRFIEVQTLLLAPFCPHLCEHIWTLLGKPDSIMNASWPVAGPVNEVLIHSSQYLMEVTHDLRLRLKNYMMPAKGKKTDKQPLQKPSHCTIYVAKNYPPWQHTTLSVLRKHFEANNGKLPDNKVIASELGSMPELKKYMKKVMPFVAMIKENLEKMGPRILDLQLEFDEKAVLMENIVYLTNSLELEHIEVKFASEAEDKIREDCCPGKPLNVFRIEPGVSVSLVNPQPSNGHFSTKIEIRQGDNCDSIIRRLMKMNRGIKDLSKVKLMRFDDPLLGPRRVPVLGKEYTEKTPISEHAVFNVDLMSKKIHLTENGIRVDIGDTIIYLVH
GST-LRS mutation (F50A/Y52A), sequence (chain, as listed by the source F50A Y52A): as the sequence (chain, as listed by the source) above, with F50A, Y52A counted along it

Substance: purified GST-LRS protein
- activity of Vps34 (in vitro Vps34 lipid kinase assay): the activity of Vps34 was increased by about 3 times compared to the GST control
- activity of Vps34 (in vitro Vps34 lipid kinase assay), with leucine: the activity was further increased by leucine stimulation

Substance: GST-LRS mutation (F50A/Y52A)
- activity of Vps34 (in vitro Vps34 lipid kinase assay): LRS mutation (F50A/Y52A) did not induce the activation of Vps34, regardless of the presence or absence of leucine stimulation
